Substitutions are numbered along the chain they refer to. Names and notes keep the numbering of the source.

Test [1] deals with T1, Biotinylated prolactin receptor BirATag-Ser-PRLR (1-210) (human, UniProt P16471 25-234, biotinylated (BirA tag, biotin added during expression in E. coli)).
T1 construct: range 1-210; also called BirA-Ser-PRLR (1-210); not shown: BirA tag (biotin acceptor tag)
T1 sequence: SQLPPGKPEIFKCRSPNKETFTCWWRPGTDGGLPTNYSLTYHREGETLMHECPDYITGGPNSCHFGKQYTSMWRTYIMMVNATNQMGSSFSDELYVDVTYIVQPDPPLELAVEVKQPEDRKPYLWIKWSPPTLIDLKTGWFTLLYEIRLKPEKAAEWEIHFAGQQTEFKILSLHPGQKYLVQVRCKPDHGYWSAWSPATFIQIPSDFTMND
As to the kind of experiment: SPR (Biacore); biotinylated BirATag-Ser-PRLR (1-210) amine-coupled to CM5 chip, variant injected at 3.13-50 nM; STDEV 0.035. The method, then: (§1) Biotinylated prolactin receptor BirATag-Ser-PRLR (1-210) was diluted to 20 μg/ml in 10 mM sodium acetate pH 4.0 (Biacore BR-1003-49) and immobilized on a CM5 chip (Biacore BR-1006-68) with the immobilization reagents 1-ethyl-3-(3-dimethylaminopropyl) carbodiimide hydrochloride (EDC), N-hydroxysuccinimide (NHS) and 1.0 M ethanolamine-HCl pH 8.5 (Biacore BR1000-50). The immobilization level was 1500 RU. The PRL variants prepared as described in Example 5 were diluted to a series of concentrations as following: 3.13/6.25/12.5/25/50 nM and run through the PRLR immobilized chip using HBS-EP (10 mM HEPES pH 7.4; 150 mM NaCl; 3 mM EDTA; 0.005% v/v Tween-20) as the running buffer under the following conditions: […]

Test [2] addresses T1, Biotinylated prolactin receptor …. Kind of test: SPR (Biacore); biotinylated BirATag-Ser-PRLR (1-210) amine-coupled to CM5 chip, variant injected at 3.13-50 nM; STDEV 0.000. The method, then: as §1
Test [3] has the same target. Kind of test: SPR (Biacore); biotinylated BirATag-Ser-PRLR (1-210) amine-coupled to CM5 chip, variant injected at 3.13-50 nM; STDEV 0.021. How it is done: as §1
The target is the same in test [4]. Kind of test: SPR (Biacore); biotinylated BirATag-Ser-PRLR (1-210) amine-coupled to CM5 chip, variant injected at 3.13-50 nM; STDEV 0.1273. The method, then:
as §1

The target is the same in test [5]. Kind of test: SPR (Biacore); biotinylated BirATag-Ser-PRLR (1-210) amine-coupled to CM5 chip, variant injected at 3.13-50 nM; STDEV 0.18. The method, then:
as §1

Test [6] has the same target. As to the kind of experiment: SPR (Biacore); biotinylated BirATag-Ser-PRLR (1-210) amine-coupled to CM5 chip, variant injected at 3.13-50 nM; STDEV 0.057. How it is done:
as §1

Test [7] has the same target. As to the kind of experiment: SPR (Biacore); biotinylated BirATag-Ser-PRLR (1-210) amine-coupled to CM5 chip, variant injected at 3.13-50 nM; STDEV 0.085. The method, then:
as §1

For test [8] the target is unchanged. As to the kind of experiment: SPR (Biacore); biotinylated BirATag-Ser-PRLR (1-210) amine-coupled to CM5 chip, variant injected at 3.13-50 nM; STDEV 0.064. The method, then: as §1
Test [9] shares this target. As to the kind of experiment: SPR (Biacore); biotinylated BirATag-Ser-PRLR (1-210) amine-coupled to CM5 chip, variant injected at 3.13-50 nM; STDEV 0.2546. How it is done: as §1
The target is the same in test [10]. Kind of test: SPR (Biacore); biotinylated BirATag-Ser-PRLR (1-210) amine-coupled to CM5 chip, variant injected at 3.13-50 nM; STDEV 0.3606. How it is done:
as §1

For test [11] the target is unchanged. As to the kind of experiment: SPR (Biacore); biotinylated BirATag-Ser-PRLR (1-210) amine-coupled to CM5 chip, variant injected at 3.13-50 nM; STDEV 0.44. The method, then: as §1
Test [12] shares this target. Kind of test: SPR (Biacore); biotinylated BirATag-Ser-PRLR (1-210) amine-coupled to CM5 chip, variant injected at 3.13-50 nM; STDEV 0.049. The method, then: as §1
Test [13] has the same target. As to the kind of experiment: SPR (Biacore); biotinylated BirATag-Ser-PRLR (1-210) amine-coupled to CM5 chip, variant injected at 3.13-50 nM; STDEV 0.0636. How it is done:
as §1

Test [14] shares this target. As to the kind of experiment: SPR (Biacore); biotinylated BirATag-Ser-PRLR (1-210) amine-coupled to CM5 chip, variant injected at 3.13-50 nM; STDEV 0.11. How it is done: as §1
Test [15] shares this target. Kind of test: SPR (Biacore); biotinylated BirATag-Ser-PRLR (1-210) amine-coupled to CM5 chip, variant injected at 3.13-50 nM; STDEV 0.092. How it is done:
as §1

B1: PRL S61A, D68N, G71A, Q73A, G129R, K190R (ligand)
chain: LPICPGGAARCQVTLRDLFDRAVVLSHYIHNLSSEMFSEFDKRYTHGRGFITKAINSCHTASLATPENKEAAAQMNQKDFLSLIVSILRSWNEPLYHLVTEVRGMQEAPEAILSKAVEIEEQTKRLLERMELIVSQVHPETKENEIYPVWSGLPSLQMADEESRLSAYYNLLHCLRRDSHKIDNYLKLLRCRIIHNNNC
notes: Printed without the prefix Ser-. 'G71A' is copied as printed
In test [1], B1 had an equilibrium dissociation constant (Kd) of 1.7 nM. This lies in the single-digit nanomolar range.

B2: PRL S61A, D68N, G129R, K190R (ligand)
chain: B1 chain with A71Q, A73Q
notes: Printed without the prefix Ser-; No. 23 carries the same substitutions with Ser-
In the case of B2, in test [2], the Kd came out at 1.4 nM. In other words, the single-digit nanomolar range.

B3: Ser-PRL D68N, E70K, Q73L, G129R, K190R (ligand)
chain: SLPICPGGAARCQVTLRDLFDRAVVLSHYIHNLSSEMFSEFDKRYTHGRGFITKAINSCHTSSLATPENKKQALQMNQKDFLSLIVSILRSWNEPLYHLVTEVRGMQEAPEAILSKAVEIEEQTKRLLERMELIVSQVHPETKENEIYPVWSGLPSLQMADEESRLSAYYNLLHCLRRDSHKIDNYLKLLRCRIIHNNNC
In the case of B3, binding in test [3] was characterised by a dissociation constant (Kd) of 1.2 nM. This counts as single-digit nanomolar.

B4: Ser-PRL S61A, D68N, G129R, K190R (ligand)
chain: B3 chain with S62A, K71E, L74Q
Regarding B4, the Kd in [4] stood at 2.3 nM.

B5: Ser-PRL S38I, D68N, G129R, I182V (ligand)
chain: B3 chain with S39I, K71E, L74Q, I183V, R191K
Molecule B5 displayed an equilibrium dissociation constant (Kd) in test [5] of 2.8 nM.

B6: Ser-PRL D68N, Q73L, G129R, K190R (ligand)
chain: B3 chain with K71E
The molecule B6 showed a dissociation constant (Kd) in [6] of 1.2 nM. This lies in the single-digit nanomolar range.

B7: Ser-PRL S61A, D68N, Q73L, G129R, K190R (ligand)
chain: B3 chain with S62A, K71E
In the case of B7, binding in [7] was characterised by a dissociation constant (Kd) of 1.1 nM. In other words, the single-digit nanomolar range.

B8: Ser-PRL S33A Q73L G129R K190R (ligand)
chain: B3 chain with S34A, N69D, K71E
Take B8: the dissociation constant Kd in test [8] came to 5 nM.

B9: Ser-PRL N31E, G129R, K190R (ligand)
chain: B3 chain with N32E, N69D, K71E, L74Q
As to B9, in [9], the Kd stood at 2.7 nM.

B10: Ser-PRL N31R, G129R, K190R (ligand)
chain: B3 chain with N32R, N69D, K71E, L74Q
In turn, B10 displayed a dissociation constant Kd in [10] of 2.01 nM. That is a single-digit nanomolar value.

B11: Ser-PRL S33A, Q73L, G129R, K190R, I194V, H195Y, N196R, N197D (ligand)
chain: B3 chain with S34A, N69D, K71E, I195V, H196Y, N197R, N198D
In test [11], B11 returned a Kd of 3.8 nM.

B12: Ser-PRL S61A, Q73L, G129R, K190R (ligand)
chain: B3 chain with S62A, N69D, K71E
In [12], B12 displayed a Kd of 1.3 nM.

B13: Ser-PRL S38I, S61A, D68N, Q73L, G129R, K190R (ligand)
chain: B3 chain with S39I, S62A, K71E
In [13], B13 showed an equilibrium dissociation constant (Kd) of 0.3 nM.

B14: Ser-PRL G129R, K190R (ligand)
chain: B3 chain with N69D, K71E, L74Q
B14 gave a dissociation constant Kd in test [14] of 5.1 nM.

B15: Ser-PRL K42R, Q73L, G129R, K190R (ligand)
chain: B3 chain with K43R, N69D, K71E
B15 showed a Kd in [15] of 2.6 nM. That is a single-digit nanomolar value.

Values taken from patent US20100249029A1 (Novo Nordisk, published 2010).
